# T1: Rhizobium sp. Histamine Dehydrogenase (Rsp HDH) (Rhizobium sp. 4-9, UniProt Q60I59)
# T1 construct: full length (693 aa native), synthetic E. coli-optimised gene in pET28a(+), C-terminal 6xHis tag kept; E. coli BL21 Gold (DE3); IMAC purified; homodimer with 6-S-Cys-FMN, [4Fe-4S], ADP
# T1 sequence (Q60I59 1-693): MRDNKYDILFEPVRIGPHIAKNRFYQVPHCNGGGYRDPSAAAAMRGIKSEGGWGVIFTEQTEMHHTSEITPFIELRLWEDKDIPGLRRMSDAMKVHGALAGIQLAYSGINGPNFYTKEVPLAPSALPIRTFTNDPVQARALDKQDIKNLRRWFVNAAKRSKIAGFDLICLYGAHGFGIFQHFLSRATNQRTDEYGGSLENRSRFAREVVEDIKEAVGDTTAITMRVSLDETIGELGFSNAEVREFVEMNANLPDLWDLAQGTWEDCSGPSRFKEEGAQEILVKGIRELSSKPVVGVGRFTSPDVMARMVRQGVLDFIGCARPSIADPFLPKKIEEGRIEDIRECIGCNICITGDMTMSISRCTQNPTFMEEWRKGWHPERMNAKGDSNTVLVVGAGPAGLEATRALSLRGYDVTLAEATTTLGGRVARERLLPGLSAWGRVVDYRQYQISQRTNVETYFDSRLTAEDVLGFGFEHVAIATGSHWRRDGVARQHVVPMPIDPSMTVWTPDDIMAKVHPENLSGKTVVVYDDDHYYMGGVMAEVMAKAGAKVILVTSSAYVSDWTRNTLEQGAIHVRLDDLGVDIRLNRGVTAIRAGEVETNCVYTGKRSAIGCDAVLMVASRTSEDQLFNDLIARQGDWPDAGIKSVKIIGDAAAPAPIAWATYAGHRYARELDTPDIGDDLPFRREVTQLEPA
# Columns and labels:
# [1] = target: T1, Rhizobium sp. Histamine Dehydrogenase (Rsp HDH); assay: WST-8 / 1-methoxy PMS colorimetric initial rate, […] nm, substrate inhibition fit; assay type: biochemical; conditions: substrate inhibition by histamine itself; 1-methoxy PMS electron carrier; glycine buffer pH 9.0, 37 °C
# Source text: (§1) Histamine Dehydrogenase (Rsp HDH)
# purified protein [2] = substrate: N=C(N)NCCCCN; assay: purified protein; assay type: biochemical, Rhizobium sp. 4-9; conditions: 1-methoxy PMS electron carrier, glycine buffer pH 9.0, 37 °C
# Source text: as §1
# purified protein [3] = substrate: NCCc1c[nH]cn1; assay: purified protein; assay type: biochemical, Rhizobium sp. 4-9; conditions: 1-methoxy PMS electron carrier, glycine buffer pH 9.0, 37 °C
# Source text: as §1
Molecule,Observed Ki [1] [µM],Km (purified protein [2]) [µM],Km (purified protein [3]) [µM]
NCCc1c[nH]cn1 [histamine],2059.0,–,–
"Rhizobium sp. Histamine Dehydrogenase (Rsp HDH) (Rhizobium sp. 4-9) (protein, full length (693 aa native), synthetic E. coli-optimised gene in pET28a(+), C-terminal 6xHis tag kept; E. coli BL21 Gold (DE3); IMAC purified; homodimer with 6-S-Cys-FMN, [4Fe-4S], ADP) MRDNKYDILFEPVRIGPHIAKNRFYQVPHCNGGGYRDPSAAAAMRGIKSEGGWGVIFTEQTEMHHTSEITPFIELRLWEDKDIPGLRRMSDAMKVHGALAGIQLAYSGINGPNFYTKEVPLAPSALPIRTFTNDPVQARALDKQDIKNLRRWFVNAAKRSKIAGFDLICLYGAHGFGIFQHFLSRATNQRTDEYGGSLENRSRFAREVVEDIKEAVGDTTAITMRVSLDETIGELGFSNAEVREFVEMNANLPDLWDLAQGTWEDCSGPSRFKEEGAQEILVKGIRELSSKPVVGVGRFTSPDVMARMVRQGVLDFIGCARPSIADPFLPKKIEEGRIEDIRECIGCNICITGDMTMSISRCTQNPTFMEEWRKGWHPERMNAKGDSNTVLVVGAGPAGLEATRALSLRGYDVTLAEATTTLGGRVARERLLPGLSAWGRVVDYRQYQISQRTNVETYFDSRLTAEDVLGFGFEHVAIATGSHWRRDGVARQHVVPMPIDPSMTVWTPDDIMAKVHPENLSGKTVVVYDDDHYYMGGVMAEVMAKAGAKVILVTSSAYVSDWTRNTLEQGAIHVRLDDLGVDIRLNRGVTAIRAGEVETNCVYTGKRSAIGCDAVLMVASRTSEDQLFNDLIARQGDWPDAGIKSVKIIGDAAAPAPIAWATYAGHRYARELDTPDIGDDLPFRREVTQLEPA",–,130.1,38.24
"Rhizobium sp. Histamine Dehydrogenase (Rsp HDH) (Rhizobium sp. 4-9; F72T) (protein, full length (693 aa native), synthetic E. coli-optimised gene in pET28a(+), C-terminal 6xHis tag kept; E. coli BL21 Gold (DE3); IMAC purified; homodimer with 6-S-Cys-FMN, [4Fe-4S], ADP) MRDNKYDILFEPVRIGPHIAKNRFYQVPHCNGGGYRDPSAAAAMRGIKSEGGWGVIFTEQTEMHHTSEITPTIELRLWEDKDIPGLRRMSDAMKVHGALAGIQLAYSGINGPNFYTKEVPLAPSALPIRTFTNDPVQARALDKQDIKNLRRWFVNAAKRSKIAGFDLICLYGAHGFGIFQHFLSRATNQRTDEYGGSLENRSRFAREVVEDIKEAVGDTTAITMRVSLDETIGELGFSNAEVREFVEMNANLPDLWDLAQGTWEDCSGPSRFKEEGAQEILVKGIRELSSKPVVGVGRFTSPDVMARMVRQGVLDFIGCARPSIADPFLPKKIEEGRIEDIRECIGCNICITGDMTMSISRCTQNPTFMEEWRKGWHPERMNAKGDSNTVLVVGAGPAGLEATRALSLRGYDVTLAEATTTLGGRVARERLLPGLSAWGRVVDYRQYQISQRTNVETYFDSRLTAEDVLGFGFEHVAIATGSHWRRDGVARQHVVPMPIDPSMTVWTPDDIMAKVHPENLSGKTVVVYDDDHYYMGGVMAEVMAKAGAKVILVTSSAYVSDWTRNTLEQGAIHVRLDDLGVDIRLNRGVTAIRAGEVETNCVYTGKRSAIGCDAVLMVASRTSEDQLFNDLIARQGDWPDAGIKSVKIIGDAAAPAPIAWATYAGHRYARELDTPDIGDDLPFRREVTQLEPA",–,112.9,194.6
"Rhizobium sp. Histamine Dehydrogenase (Rsp HDH) (Rhizobium sp. 4-9; N110V) (protein, full length (693 aa native), synthetic E. coli-optimised gene in pET28a(+), C-terminal 6xHis tag kept; E. coli BL21 Gold (DE3); IMAC purified; homodimer with 6-S-Cys-FMN, [4Fe-4S], ADP) MRDNKYDILFEPVRIGPHIAKNRFYQVPHCNGGGYRDPSAAAAMRGIKSEGGWGVIFTEQTEMHHTSEITPFIELRLWEDKDIPGLRRMSDAMKVHGALAGIQLAYSGIVGPNFYTKEVPLAPSALPIRTFTNDPVQARALDKQDIKNLRRWFVNAAKRSKIAGFDLICLYGAHGFGIFQHFLSRATNQRTDEYGGSLENRSRFAREVVEDIKEAVGDTTAITMRVSLDETIGELGFSNAEVREFVEMNANLPDLWDLAQGTWEDCSGPSRFKEEGAQEILVKGIRELSSKPVVGVGRFTSPDVMARMVRQGVLDFIGCARPSIADPFLPKKIEEGRIEDIRECIGCNICITGDMTMSISRCTQNPTFMEEWRKGWHPERMNAKGDSNTVLVVGAGPAGLEATRALSLRGYDVTLAEATTTLGGRVARERLLPGLSAWGRVVDYRQYQISQRTNVETYFDSRLTAEDVLGFGFEHVAIATGSHWRRDGVARQHVVPMPIDPSMTVWTPDDIMAKVHPENLSGKTVVVYDDDHYYMGGVMAEVMAKAGAKVILVTSSAYVSDWTRNTLEQGAIHVRLDDLGVDIRLNRGVTAIRAGEVETNCVYTGKRSAIGCDAVLMVASRTSEDQLFNDLIARQGDWPDAGIKSVKIIGDAAAPAPIAWATYAGHRYARELDTPDIGDDLPFRREVTQLEPA",–,170.1,159.5

# Reference: article PMC10180351, “Modulating Substrate Specificity of Rhizobium sp. Histamine Dehydrogenase through Protein Engineering for Food Quality Applications” (Molecules, 2023)
